According to US20140349310A1:

Target: human c-Met on the surface of human tumor cells (human) (UniProt P08581)
Test: FACS on tumor cells (cell line not named on the sheet), PE-labelled isotype control, FL2 Log; unstained cells 3.48

Chain of human c-Met on the surface of human tumor cells (human) (P08581 25-1390): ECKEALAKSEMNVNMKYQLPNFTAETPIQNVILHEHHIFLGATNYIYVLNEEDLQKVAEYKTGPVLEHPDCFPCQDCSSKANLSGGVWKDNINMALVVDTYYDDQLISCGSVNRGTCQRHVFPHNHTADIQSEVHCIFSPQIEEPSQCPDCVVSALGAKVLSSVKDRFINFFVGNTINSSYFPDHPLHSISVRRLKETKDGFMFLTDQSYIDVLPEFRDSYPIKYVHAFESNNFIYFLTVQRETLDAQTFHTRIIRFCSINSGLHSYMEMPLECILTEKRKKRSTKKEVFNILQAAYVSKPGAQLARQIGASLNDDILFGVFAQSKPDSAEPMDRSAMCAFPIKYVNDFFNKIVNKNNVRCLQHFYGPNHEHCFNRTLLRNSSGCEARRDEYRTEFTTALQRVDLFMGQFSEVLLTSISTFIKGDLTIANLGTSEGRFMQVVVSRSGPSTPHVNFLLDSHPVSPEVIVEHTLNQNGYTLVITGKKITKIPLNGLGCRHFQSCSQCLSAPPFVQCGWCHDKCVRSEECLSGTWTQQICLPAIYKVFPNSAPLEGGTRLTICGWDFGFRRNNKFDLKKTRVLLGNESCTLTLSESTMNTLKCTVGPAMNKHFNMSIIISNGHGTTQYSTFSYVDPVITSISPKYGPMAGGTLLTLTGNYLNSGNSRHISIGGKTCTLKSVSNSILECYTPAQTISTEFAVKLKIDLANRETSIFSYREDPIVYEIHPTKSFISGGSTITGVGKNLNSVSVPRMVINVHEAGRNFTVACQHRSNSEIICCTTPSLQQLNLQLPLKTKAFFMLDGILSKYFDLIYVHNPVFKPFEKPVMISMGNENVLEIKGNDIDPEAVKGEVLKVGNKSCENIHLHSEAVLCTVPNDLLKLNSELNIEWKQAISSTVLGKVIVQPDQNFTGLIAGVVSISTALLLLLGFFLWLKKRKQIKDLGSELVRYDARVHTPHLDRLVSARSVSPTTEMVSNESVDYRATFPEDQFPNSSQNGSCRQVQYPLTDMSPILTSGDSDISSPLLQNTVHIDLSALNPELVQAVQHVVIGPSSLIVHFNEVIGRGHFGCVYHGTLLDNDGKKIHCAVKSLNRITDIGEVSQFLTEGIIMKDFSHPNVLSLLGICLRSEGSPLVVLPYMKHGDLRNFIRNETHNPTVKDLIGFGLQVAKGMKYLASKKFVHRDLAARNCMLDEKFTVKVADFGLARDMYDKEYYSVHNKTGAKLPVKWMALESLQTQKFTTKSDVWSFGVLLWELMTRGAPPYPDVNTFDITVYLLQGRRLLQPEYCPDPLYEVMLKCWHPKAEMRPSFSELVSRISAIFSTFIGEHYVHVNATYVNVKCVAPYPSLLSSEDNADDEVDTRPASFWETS

For mIgG1-PE (antibody), which Mean fluorescence is on record?
The Mean fluorescence was 6.47.
